21 molecules from patent US20170320960A1 (AbbVie / Abbott, published 2017) can be followed below.

Residue numbers refer to the chain shown, from its start.

The chains are these.
T1: hMFI2 Tf-like Domain 1 (TLD1), amino acids 20-357, displayed on yeast (human, UniProt P08582 20-357)
T1 construct: also called TFLD1
T1 sequence: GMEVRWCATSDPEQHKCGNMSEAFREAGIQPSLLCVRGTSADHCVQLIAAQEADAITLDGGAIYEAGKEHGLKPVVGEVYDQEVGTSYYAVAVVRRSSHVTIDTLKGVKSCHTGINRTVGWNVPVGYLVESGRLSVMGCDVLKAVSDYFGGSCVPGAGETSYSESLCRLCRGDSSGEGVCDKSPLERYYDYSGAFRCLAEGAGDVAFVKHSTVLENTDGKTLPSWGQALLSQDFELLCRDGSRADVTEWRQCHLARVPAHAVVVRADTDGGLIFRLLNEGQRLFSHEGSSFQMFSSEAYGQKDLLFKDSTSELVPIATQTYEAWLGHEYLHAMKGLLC

T2: hMFI2 Tf-like Domain 2 (TLD2), amino acids 366-709, displayed on yeast (human, UniProt P08582 366-709)
T2 construct: also called TFLD2; transferrin-like domain 2
T2 sequence: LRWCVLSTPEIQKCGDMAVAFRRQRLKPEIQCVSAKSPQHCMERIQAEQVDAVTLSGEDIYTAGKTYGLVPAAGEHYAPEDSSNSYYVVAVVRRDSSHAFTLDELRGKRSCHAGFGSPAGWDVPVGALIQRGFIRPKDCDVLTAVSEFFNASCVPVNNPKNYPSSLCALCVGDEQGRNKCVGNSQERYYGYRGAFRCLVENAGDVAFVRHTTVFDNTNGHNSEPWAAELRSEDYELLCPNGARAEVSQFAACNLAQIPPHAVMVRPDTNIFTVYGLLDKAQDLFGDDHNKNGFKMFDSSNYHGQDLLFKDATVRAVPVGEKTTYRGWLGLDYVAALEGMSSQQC

B1: SC57.27 (antibody, V domains shown)
VH: ELKLVESGGDLVKPGGSLKLSCAASGFSFNNYAMSWVRQTPEKRLEWVASISSGGTTFYPDSVKGRFTMSRDHARNILYLQMNSLRSEDTAMYYCVRGQWLSLYSMDYWGQGTSVTVSS
VL: DIQMTQSPVSLSASVGETVTITCRASEIIYSYLAWYQQKQGKSPQLLVYNAKTLAEGVPSRFSGSGSGTQFSLKINSLQPEDFGTYYCQHHYGVPVTFGAGTKLELK
B2: SC57.7 (antibody, V domains shown)
VH: GVQVVESGGGVVQPGGSLKLSCAASGFTFSSYAMSWVRQTPEKRLEWVAYLSRGGGSTYYLDTVKGRFTISRDNAKNTLYLQMNSLKSEDTAMYYCARLDGYNWYFDVWGAGTPVTVSS
VL: DIVMSQSPSSLAVSAGEKVTMSCKSSQSLLHSRIRKNYLAWYQQKPGQSPKLLIYWASTRESGVPDRFTGSGSGTDFTLTISSVQAEDLAVYYCKQSYNLFTFGGGTKLEIK
B3: SC57.1 (antibody, V domains shown)
VH: QVQLKQSGPGLVQPSQSLSITCTVSGFSLTDYGVHWVRQSPGKGLDWLGVIWSGGNTDYNAAFISRLSISKDNSKSQIFFEMNSLQDTDTAIYYCARQLHYYGPFAYWGQGTLVTVSA
VL: QIVLTQSPAIMSASPGEKVTMTCSASSSVSYMHWYQQKSGTSPKRWIYDTSKLASGVPVRFSGSGSGTSYSLTISSIEADDAATYYCQQWSRTPPTFGGGTKLEIK
B4: SC57.2 (antibody, V domains shown)
VH: B3 VH
VL: B3 VL
B5: SC57.10 (antibody, V domains shown)
VH: QVQLQQSGAELMKPGASVKISCKATGYTFSNYRIEWIKQRPGHGLEWIGEILPRGGNTNYNEKFKGKATFTADTSSNTAYMQLTSLTSEDSAVYYCARDDGYYGRFAYWGQGTLVTVSA
VL: DIQMTQTTSSLSASLGDRVTISCRASQDISNYLNWYQQKPDGTVKLLIFYTSRLHSGVPSRFSGSGSGTDYSLTISNLEQEDFATYFCQQGNTLPPTFGGGTKLEIK
B6: SC57.11 (antibody, V domains shown)
VH: B5 VH with I37M, G55T, K63N, M81I, T84S
VL: B5 VL with N31S, F49Y, S76N, F83I
B7: SC57.17 (antibody, V domains shown)
VH: EVQLQQSGAELVKPGASVKLSCTASGFNIKDTYMHWVKQRPEQGLEWIGRIDPANVNTSDDPKFQGKATIAADTSSNTVYLQLSSLTSEDTAVYYCARDYRYDGYYYAMDYWGQGTSVTVSS
VL: DIQMTQTTSSLSASLGDRVTISCSASQDINNYLNWYQQKPDGTVKLLIHYTSSLHSGVPSRFSGSGSGTDYSLTISNLEPEDIATYYCQQYSKVPWTFGGGTKLEIK
B8: SC57.5 (antibody, V domains shown)
VH: EVQLQQSGPELVKPGASVKISCKASGYSFTDYYLHWVKQSHVKSLEWIGRINPYNGATSYNQIFKDKASLTVDKSSSTAYMDLHSLTSEDSAVYYCARGGDYDFPWYWGQGTTLTVSP
VL: DIVMTQSHKFMSTSVGDRVSITCKASQDVYAAVAWYHQKPGQSPKLLIYWASTRHAGVPDRFTGSGSGTDYTLTISSVQAEDLALYYCQQHYRTPWTFGGGTKLEIK
B9: SC57.4 (antibody, V domains shown)
VH: EIQLQQSGPEMVKPGASVKVTCKASGYSFTDFNMHWMKQSHGKSLEWIGYIDPYKGGISYNQKFKGRATLTVDKSSSTAFMHLNSLTSDDSAVYYCARDYYGSRFPYYFDYWGQGTTLTVSS
VL: DVVMTQTPLSLPVSLGDQASISCRSSQSLVHSNGNTYLHWYLQKPGQSPKLLIYRVSNRFSGVPDRFSGSGSGTDFTLKISRVEAEDLGVYLCSQSTHVPLTFGAGTKLELK
B10: SC57.18 (antibody, V domains shown)
VH: B9 VH
VL: B9 VL
B11: SC57.25 (antibody, V domains shown)
VH: B9 VH
VL: B9 VL
B12: SC57.28 (antibody, V domains shown)
VH: B9 VH
VL: B9 VL
B13: SC57.9 (antibody, V domains shown)
VH: QVQLQQSGPELMKPGASVKISCKATGYTFSSYWIEWVKQRPGHGLEWIGEILPGSGSTEYNEKFKGKATFTADTSSNTAYMQLSSLTSEDSDVYYCARKRYGTMDYWGQGTSVTVSS
VL: QIVLTQSPAIMSASPGEKVTITCSASSSVSYMHWFQQKPGTSPKLWIYTTSNLASGVPARFSGSGSGTSYSLTISRMEAEDAATYYCQQRSSFPPTFGSGTKLEIK
B14: SC57.32 (antibody, V domains shown)
VH: B5 VH
VL: B5 VL
B15: SC57.37 (antibody, V domains shown)
VH: B9 VH
VL: B9 VL
B16: SC57.31 (antibody, V domains shown)
VH: QVHLKESGPGLVAPSQSLSITCTVSGFSLTTYGVHWVRQPPGKGLEWLGVIWAGGSTKYNSAFMSRLSISKDNSKTQVLLKMNSLQTDDTAMYYCARVASHGSSSWFAYWGQGTLVTVSA
VL: DIVLTQSPATLSVTPGDSVSLSCRASQSVGNSLHWYQQKSHESPRLLIKYASQSISGIPSRFSGSGSGTDFTLSINSVETEDFGMYFCQQSDSWPLTFGTGTKLELK
B17: SC57.52 (antibody, V domains shown)
VH: QVQLKQSGPGLVQPSQSLSITCTVSGFSLSSYGVHWVRQSPGKGLEWLGVIWSGGNTDYNAAFISRLSISKDNSKSQVFFKMNSLQADDTAIYYCARRNNSAWFAYWGQGTLVTVSA
VL: B16 VL with S28G, V29I, G30S, S32N, T72A, Y86F, D92N, T100A
B18: SC57.55 (antibody, V domains shown)
VH: B17 VH
VL: B16 VL with S28G, V29I, G30S, S32N, T72A, Y86F, D92N, T100A
B19: hSC57.43 (antibody, human IgG1, kappa, V domains shown)
VH: QVQLVESGGGVVQPGRSLRLSCAASGFTFGSYTMSWVRQAPGKGLEWVAYISNGGYVTYYPDTVKGRFTISRDNSKNTLYLQMNSLRAEDTAVYYCARGYDWYFDVWGQGTTVTVSS
VL: DIVMTQSPDSLAVSLGERATINCRSSQSLVHSNGNTYLHWYQQKPGQPPKLLIYKVSNRFSGVPDRFSGSGSGTDFTLTISSLQAEDVAVYYCSQSTHVPLYTFGGGTKVEIKR
B20: hSC57.32 (antibody, human IgG1, kappa, V domains shown)
VH: QVQLVQSGAEVKKPGASVKVSCKASGYTFTNYRIEWVRQAPGQGLEWMGEILPRGGNTNYNEKFKGRVTFTADTSTSTAYMELRSLRSDDTAVYYCARDDGYYGRFAYWGQGTLVTVSS
VL: DIQMTQSPSSLSASVGDRVTITCRASQDISNYLNWYQQKPGKAPKLLIYYTSRLHSGVPSRFSGSGSGTDYTLTISSLQPEDFATYYCQQGNTLPPTFGGGTKVEIKR
B21: hSC57.5 (antibody, human IgG1, kappa, V domains shown)
VH: EVQLVQSGAEVKKPGESLKISCKGSGYSFTDYYLHWVRQMPGKGLEWMGRINPYNGATSYNQIFKDQVTISADKSISTAYLQWSSLKASDTAMYYCARGGDYDFPWYWGQGTTVTVSS
VL: DIQMTQSPSSLSASVGDRVTITCKASQDVYAAVAWYQQKPGKAPKLLIYWASTRHAGVPSRFSGSGSGTDFTLTISSLQPEDFATYYCQQHYRTPWTFGQGTKVEIKR
notes: also called humanized SC57.5

One test addresses T1, hMFI2 Tf-like Domain 1 (TLD1), amino …. Briefly: flow cytometry on yeast displaying hMFI2 domains.
In the case of B1, the binding result is on record as “binds”.

On to B2, for which the binding result was “binds”.

With B3, the binding result was “binds”.

Regarding B4, the binding result is given as “binds”.

The next test concerns the target T2, hMFI2 Tf-like Domain 2 (TLD2), amino …. Briefly: flow cytometry on yeast displaying hMFI2 domains.
As to B5, the binding result is on record as “binds”.

B6: the binding result is listed as “binds”.

Regarding B7, the binding result is “binds”.

Take B8: the binding result is reported as “binds”.

As for B9, the binding result is given as “binds”.

In the case of B10, the binding result is listed as “binds”.

Take B11: the binding result is reported as “binds”.

With B12, the binding result was “binds”.

As for B13, the binding result is on record as “binds”.

For the next test the target is unchanged. Description: flow cytometry on yeast displaying hMFI2 domains. This is another data set of the same source. On the technique in general: A flow cytometer gives signals particle by particle.
As for B14, the binding result is given as “binds”.

Take B15: the binding result was “binds”.

With B16, the binding result is given as “binds”.

As to B17, the binding result was “binds”.

As to B18, the binding result is recorded as “binds”.

Consider B19, for which the binding result is listed as “binds”.

Consider B20, for which the binding result is reported as “binds”.

For B21, the binding result is recorded as “binds”.
